Assay results taken from PMC9195068, “The action of Con-ikot-ikot toxin on single AMPA-type glutamate receptors” (The Journal of General Physiology, 2022).

Target: the molecule itself
Experiment: non-reducing SDS-PAGE

B1: Con-ikot-ikot toxin (natural protein)
chain: SGPADCCRMKECCTDRVNECLQRYSGREDKFVSFCYQEATVTCGSFNEIVGCCYGYQMCMIRVVKPNSLSGAHEACKTVSCGNPCA
notes: also called CII; CII toxin
  stoichiometry N: 2
